Each sequence was assayed against HLA-A*02:01 (assay: IEDB peptide-MHC binding, purified MHC/competitive/radioactivity; ≥ and ≤ were set here for values at or beyond the usual limits of such assays). Conditions: source organism: Vaccinia virus WR.

Sequence	IC50 [µM]
SIEGELESL	3.94
FMIITSTKTI	1.48
ILLTLRMTQL	0.366
LLHVFQEYRL	0.027
GLYYQGSCYI	0.0051
NMISDTIFV	0.0022
LLLLLFHSYA	0.0097
VILFIMFMLI	0.384
YLVSSLSEI	0.0065
GIYHDDLVV	2.83
VLYPVIFIT	0.0093
YLDFLLLLL	0.00043
VLITMLSIIL	0.124
KLSDVGHQYA	0.021
KLIGITAIM	0.02
WLLGFIKCI	0.025
KLTFLDVEV	0.093
LMIEYNLLT	0.0015
VLPNKVRIFI	1.31
YLDFLLLLLI	0.018
VTLQKVLHV	0.622
KIFIDNIYIV	0.522
RMILYLESV	0.0018
SVEKIADDRI	3.83
LVDICDRIV	2.14
FILHRLHEI	0.00065

Sequence	IC50 [µM]
LITMLSIIL	0.115
ILTLDIFYL	0.0013
YLAIPDLYGI	0.0082
FLKIKVTAA	0.052
HQWDIDSAI	1.01
SMPASHNNLA	1.91
IIILAVLFI	1.66
FIRYGDASLM	2.35
YTYLIGEKI	5
ILFNLSKFLL	0.004
MITMSAFLI	0.422
LIFFVIILA	0.234
GLVRLNAFL	0.0017
RLLDDLVIV	0.00065
YVHGDTYSL	0.071
ILLFVIVIYI	0.0078
LLMMTLPSI	0.00011
IVMDNDDNIL	0.883
PLGILSNYV	2.71
SLSSIRFHI	0.011
YLPKQPEGVI	0.279
ILSNYVKTLL	0.0075
YITALNHLV	0.00071
KTFKDESIFI	0.093
FLRGEAILQI	0.085
KTDGIPITI	0.048

Sequence	IC50 [µM]
EVGIKSVVV	0.123
SIINRDIIVI	0.826
RLVDFFPDI	0.00014
RISGSNIVI	3.67
RISMVISLL	1.46
YLLSGSDLFI	0.00025
YLFGGFSTL	0.00087
AVVYSTCTV	0.104
KLLKMVTSV	0.0012
FAAELTIGV	0.00032
SIFGFQAEV	0.00054
TVMNNLSEL	0.533
KLNKMTVEL	0.0065
QAKTKNFTI	3.8
VLDATNDGLI	0.369
QLVDAIDNIV	0.101
YVSTGESSIL	1.36
FTFTIYTDEV	0.352
FLTLLGIGCV	0.00029
PLYEVNSTMT	3.42
KLYLVDYGL	0.013
IIVALTIMGV	0.216
GVIEYAKSI	4.18
YMNYYTTYI	0.0011
YLSSWTPVV	0.00033
ILTREMGFLV	0.007

Sequence	IC50 [µM]
ALTIMGVIFL	0.18
TIATYIDAL	0.61
ALATFTVNI	0.0006
KVYDKLFPV	0.00034
LISLTNEIYA	1.22
FLVFVKPTT	0.516
ILGMLFSDRV	0.017
RIPNSLHSL	0.67
LVDNVDFATI	3.67
GLDLENLYAV	0.0035
TAIFTDASTV	4.46
ETIGNQLYL	3.54
TTLSRHIFMA	0.399
YMDLSYHGVT	0.085
FIKPPLITL	0.373
GLHCDFACLM	2.8
RLESYHRFDM	3.33
FILIFNIIV	0.0032
LTIMGVIFL	0.608
DAIIDIEPDL	2.27
LQYDLWNVV	0.022
FIDILLFVI	0.014
IVYCLNALV	0.102
KLFTDNNFL	0.002
SLHSLSVET	0.266
FIYLLFASM	0.173

Sequence	IC50 [µM]
LVDNVDFAT	0.461
TLWAIINTI	0.0094
SMLIEVILTA	0.795
LLLDYMTST	0.007
ILQYDLWNV	0.00017
TLLCVLPAVV	0.0025
LTREMGFLV	2.36
IVALTIMGV	0.027
FTLIDIWFL	0.00049
LLEIHQYPA	0.098
GLCIRISMVI	2.04
ALIANIHNHM	0.118
LTIMGVIFLI	0.0094
GMANTTFHV	0.00041
VIHDYICWL	0.012
HLIFSYAFL	0.105
SMSSYDFST	0.00034
SVVVPIKFI	2.96
CLCSFHNDA	4.14
YITALNHLVL	0.28
VMISILNPV	0.033
VLVDNVDFAT	0.016
AASSTHRKV	2.65
MISRHCCIL	1.03
IVSKLTFLDV	0.085
KTSTLIFFV	0.001

Reference: the Immune Epitope Database (IEDB)
